In the DeepSol protein solubility set:

Assay: soluble on expression in E. coli; label from the status in PepcDB or PDB records

Sequence	soluble on expression in E. coli
MSDPSAKPLQEHILIILDDAGRREVLLTETFYTIGRSPRADIRIKSQFVSRIHAVLVRKSSDDVQAAYRIIDGDEDGQSSVNGLMINGKKVQEHIIQTGDEIVMGPQVSVRYEYRRRDQFGTMLEHHHHHH	soluble
MNKQRFVVIDVETTGNSPKKGDKIIQIAAVVIENGQITERFSKYINPNKSIPAFIEQLTGISNQMVENEQPFEAVAEEVFQLLDGAYFVAHNIHFDLGFVKYELHKAGFQLPDCEVLDTVELSRIVFPGFEGYKLTELSEELQLRHDQPHRADSDAEVTGLIFLEILEKLRQLPYPTLKQLRRLSQHFISDLTHLLDMFINENRHTEIPGYTRFSSFSVREPEAIDVRINEDENFSFEIESWEAGNEKALSELMPGYEKRDGQMMMMREVADAFANREHALIEAPPGIGKTIGYLIPAALFAKKSKKPVIISTYSTLLQQQILTKDLPIVQDLFPFPVTAAILKGQSHYLCLYKFEQVLHEEDDNYDAVLTKAQLLVWLTETNTGDVAELNLPSGGKLLWDRLAYDDDSYKRSRSEHVIGFYERAKQIAMRSDLVITNHSLLLTDEGSHKKRLPESGTFIIDEAHHFERAASEHLGKRATYIELHTKLSRIGTLKEQGLLKKMRQLFQRNSLPVDSFFELEEWLQHVQAESDAFFSSVHSFVKRRKPKEDLNRLVFKVNKESQDKSWSILTDGAERLCSMLTHLQQLFEAQSSLMEKHLKGMKSKTVFLADEYQRSMKGLQHYCQTLQKLFFGSDDDEAVWIEIDAKGAKNAVAIYAQPLEPGELLADQFFARKNSVVLTSATLTVEGSFQFMIERLGLSDFFPRTMRIESPFSYDERMQVMIPKEMKSIQDTGQPEFIQDTARYIELMAKEKQPKILVLFTSHDMLKKVHQELKHNMSASGIQLLAQGITGGSPGKLMKTFKTSNQAILLGTNHFWEGVDFPGDELTTVMIVRLPFRSPDHPLHAAKCELARKKGKNPFQTVSLPEAVLTFRQGIGRLLRSAGDKGTIIILDRRIKTAGYGRLFLDALPTTSVSEMTDSELEAY	not soluble
MQVRIERAERIESELEEHVGDQTFVEESRFLEEDEQREGEILDQIIFVDGKRRSFVRITTDEGITGIFAELCVGAVIWDREGGTKTLFSPDKPPVKERVLGFSQSFQEEGYEEVGGILFKVVKEGKDAMQSIDLYMRSLEIEEVRKHMDKNILIVKDGPAARELPFEENVGPIGLVKNIGVTELSKEDFKKLRFLKKGKRSKMFVSSRETPLKKVGAYVKLIDGEGIRGLVRLETYVKDDNQIPYIRKVFDDLAKTLPHLTADLPIPRLPENILPIQFLEENLSYYLTDKNYMNTRLFAYIGR	not soluble
MSLTHTSDKHVTDEELELVTRGKADGIYMKAPNGSPTSLNERQWVQVRTRAFKNWFGDWENVPEAASRIPDDKYGNEQWTEEGYVYDLYVNSRNPFDPKDGQAVKKILQSLGSEIPVLSFYGGKGGTVSPEKALELASSKRNCWMLTETPEFLSKVREAGYDGLVGYDEGVKYIAVMSPGQLKDAYENTGAFSTSNDDIRFRQVYHGSPASLGHFDHAFTGTGEGAQAYGWGTYVTEVKGIARKYAAIGIKRGNHITYDGEPLSPVLDNEYYFDEVWRIWKRQILSSTDVDSLKRNISSVYMDGRTASAYSGRRKAFERQKQELLSDIDAGRIRIEPPRHLYTVEIPEDNGMNYLYWDRPVSAEQQGKIFLQLRKERFFFPEATAEFWSGRSHVWNSGKEFYGFLDYMFMNPDRDTDSQRLASGFLSRAGFTGIDYPAECSTGGRADGARNYVIFSEADLKITAHERFRFIGEKGASRLDRSEGASLRLENLAVAREMEKSGKDAGTIKAATGWERGADSKWRYETADFEYHPAGDLGYSRLLEKQSWHGELENLLDRQIEGETLSEAEWKRFEKLTELAAGLKEQDALRERIYLDDYVKDDELFQAYPEMKRTRLEFVDLPSADYCGGYLHPDNRIVINISRTDDVRSVLAHEIQHAIQTMEGFARGSNPGEFKNTVENVILDIVRATDGRILEGGGFDNTPKGIFAALDRKVPYGTILRHYDYPLSLVAEKYGYENIFDLVNDIGRFKSGIQEYRSTAGEVEARNVESRLDFTSAQRRNTLAVSTEDIARNGQIFLSRDVRMDELARHVSFLAGKLHIPVEVIRHADEVGSPDIRGLLSCGKDIRGWYDIPSQRVCLYLPHVRGKADVERTLLHEGVAHYGLRKLAGHKHMDAFLDDIFNGCGEKVRDEILRMAAADRTDIRVATEEYLARMAEDGTDQSLWDRIVTAFRNLLRKLGFCLEIGTRELRGILAASRKNLIGIAEPTVIQTARGDLELSCGYGRAVLRRQGVETDVTSLLERMRKAGISPASLGQEDWKAVFNGGIILPGGRKLMAVREPAGYGMRISGVSPGSTREGHHHHHH	soluble
